Measured values: article doi:10.1101/2022.01.25.477770 (bioRxiv, 2022)

What was measured:
[1] = target: T1, MERS-CoV full-length spike, expressed on the cell surface (MERS-CoV EMC/2012 (GenBank AFS88936), UniProt K0BRG7); test: flow cytometry on cells; settings: one partner purified
T1 construct: also called MERS-CoV spike; MERS-CoV EMC

[2] = target: T2, SARS-CoV-2 full-length spike, expressed on the cell surface (SARS-CoV-2 WA-1 (GenBank QHD43416.1), UniProt P0DTC2); test: flow cytometry on cells; settings: one partner purified
T2 construct: also called SARS-CoV-2 spike; WA-1 spike; source: Expi-293 cells, transiently transfected, on the cell surface

[3] = target: T3, hCoV-HKU1 full-length spike, expressed on the cell surface (hCoV-HKU1 isolate N1 (AAT98580.1), UniProt Q5MQD0); test: flow cytometry on cells; settings: one partner purified
T3 construct: also called hCoV-HKU1 spike; source: Expi-293 cells, transiently transfected, on the cell surface

[4] = target: T4, hCoV-OC43 full-length spike, expressed on the cell surface (hCoV-OC43 (AAT84354.1), UniProt P36334); test: flow cytometry on cells; settings: one partner purified
T4 construct: also called hCoV-OC43 spike; source: Expi-293 cells, transiently transfected, on the cell surface

[5] = target: T5, SARS-CoV-2 spike S2 subunit (SARS-CoV-2, UniProt P0DTC2); test: far-Western, overlay or dot blot; settings: both partners purified
T5 construct: also called S2 domain

[6] = target: T6, SARS-CoV spike peptide #154, PELDSFKEELDKYFKNH (SARS-CoV residues 1125–1141); corresponding to SARS-CoV-2 … (SARS-CoV, residues 1125-1141); test: far-Western, overlay or dot blot; settings: both partners purified
T6 construct: also called 17-residue peptide
T6 chain: PELDSFKEELDKYFKNH

[7] = target: hCoV-OC43 prefusion-stabilized spike (S2P) (hCoV-OC43 (AAT84354.1), UniProt P36334, stabilised); test: ELISA; settings: both partners purified
[8] = target: SARS-CoV-2 spike N-terminal domain (NTD) (SARS-CoV-2, WA-1 / Wuhan-Hu-1, UniProt P0DTC2); test: ELISA; settings: both partners purified
[9] = target: T7, SARS-CoV-2 S1-short (spike residues 1–670) (SARS-CoV-2, UniProt P0DTC2); test: ELISA; settings: both partners purified
T7 construct: also called S1-short1

[10] = target: SARS-CoV-2 S-dTM (soluble spike protein residues 1–1206 of wildtype WA-1 strain) (SARS-CoV-2 WA-1, UniProt P0DTC2); test: ELISA; settings: both partners purified
[11] = target: SARS-CoV-2 spike receptor-binding domain (RBD) (SARS-CoV-2, UniProt P0DTC2); test: ELISA; settings: both partners purified
[12] = target: hCoV-HKU1 prefusion-stabilized spike (S2P) (hCoV-HKU1 isolate N1 (AAT98580.1), UniProt Q5MQD0, stabilised); test: ELISA; settings: both partners purified
[13] = target: SARS-CoV-2 S1R (spike residues 1–537) (SARS-CoV-2, UniProt P0DTC2); test: ELISA; settings: both partners purified
[14] = target: T5, SARS-CoV-2 spike S2 subunit; test: negative-stain EM; settings: both partners purified

Row | Binder | binding result [1] | binding result [2] | binding result [3] | binding result [4] | binding result [5] | binding result [6] | binding result [7] | binding result [8] | binding result [9] | binding result [10] | binding result [11] | binding result [12] | binding result [13] | binding result [14]
1 | antibody WS6 (IgG) (antibody, V domains shown, also called mAb WS6) VH: EVQFQQSGTVLARPGASVKMSCKASGYTFTNYWIHWVKQRPGQGLEYIGGTYPGNGDTTYNQKFKGKAKVTAVTPTSTAYMDLSSLTNEDSAVYYCTRTGSYFDYWGQGTTLTVSS VL: QIVLTQSPAIMSASPGEKVTISCSATSSVSYIYWYQQRPGSSPKPWIYRTSNLASGVPVRFSGSGSGTSYSLTISNMEAEDAATYYCQQYQSYPPTFGAGTKLELK | binds | binds | binds | binds | binds | binds | binds | no binding | no binding | binds | no binding | binds | no binding | –
2 | antigen-binding fragment (Fab) of WS6 (Fab, V domains shown, also called Fab WS6; WS6 Fab; source: generated from the mAb with the Pierce Fab kit) VH: EVQFQQSGTVLARPGASVKMSCKASGYTFTNYWIHWVKQRPGQGLEYIGGTYPGNGDTTYNQKFKGKAKVTAVTPTSTAYMDLSSLTNEDSAVYYCTRTGSYFDYWGQGTTLTVSS VL: QIVLTQSPAIMSASPGEKVTISCSATSSVSYIYWYQQRPGSSPKPWIYRTSNLASGVPVRFSGSGSGTSYSLTISNMEAEDAATYYCQQYQSYPPTFGAGTKLELK | – | – | – | – | – | – | – | – | – | – | – | – | – | binds
